# From PMC9352680, “A comprehensive thermodynamic model for RNA binding by the Saccharomyces cerevisiae Pumilio protein PUF4”
# T1: PUF4 RNA-binding domain (Saccharomyces cerevisiae, UniProt P25339 537-888)
# T1 sequence: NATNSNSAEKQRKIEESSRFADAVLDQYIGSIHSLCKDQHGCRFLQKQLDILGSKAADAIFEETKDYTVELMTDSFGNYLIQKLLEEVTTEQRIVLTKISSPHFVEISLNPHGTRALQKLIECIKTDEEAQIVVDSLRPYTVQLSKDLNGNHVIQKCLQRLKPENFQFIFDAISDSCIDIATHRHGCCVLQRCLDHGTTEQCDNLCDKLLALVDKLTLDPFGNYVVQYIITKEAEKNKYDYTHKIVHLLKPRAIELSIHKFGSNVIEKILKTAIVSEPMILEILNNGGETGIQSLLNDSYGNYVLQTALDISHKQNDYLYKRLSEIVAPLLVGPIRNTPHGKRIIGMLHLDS
# B1: Id_ii_S1_P4E.2_K4.1_C4.2_[C-2T]_[T-1G]_H4.1_A4.1_F4.1_T4.2_[G10A]_[T11A] (ssRNA)
# RNA: UCUCUUUGUGUAUAUUAAAUCUCUU
# B2: Id_ii_S1_P4E.2_K4.1_C4.2_[C-2T]_[T-1G]_H4.1_A4.1_F4.1_T4.2_[G10A] (ssRNA)
# RNA: UCUCUUUGUGUAUAUUAAUUCUCUU
# B3: Id_ii_S1_P4E.2_K4.1_C4.2_[C-2T]_[T-1G]_H4.1_A4.1_F4.1_T4.2 (ssRNA)
# RNA: UCUCUUUGUGUAUAUUAGUUCUCUU
# B4: Ib_S1_P4E.1_K4.1_C4.1_H4.1_[G2A]_A4.1_[T7A]_F4.1_T4.1 (ssRNA)
# RNA: UCUCUUUAUAUAAUAUCUCUU
# B5: Id_ii_S1_P4E.2_K4.1_C4.2_[C-2T]_[T-1C]_H4.1_A4.1_F4.1_T4.2_[G10C]_[T11C] (ssRNA)
# RNA: UCUCUUUCUGUAUAUUACCUCUCUU
# B6: Id_ii_S1_P4E.2_K4.1_C4.2_[C-2T]_[T-1C]_H4.1_A4.1_F4.1_T4.2_[G10C] (ssRNA)
# RNA: UCUCUUUCUGUAUAUUACUUCUCUU
# B7: Id_ii_S1_P4E.2_K4.1_C4.2_[C-2T]_[T-1C]_H4.1_A4.1_F4.1_T4.2_[G10T]_[T11G] (ssRNA)
# RNA: UCUCUUUCUGUAUAUUAUGUCUCUU
# B8: Id_ii_S1_P4E.2_K4.1_C4.2_[C-2T]_[T-1C]_H4.1_A4.1_F4.1_T4.2_[G10T]_[T11C] (ssRNA)
# RNA: UCUCUUUCUGUAUAUUAUCUCUCUU
# B9: Id_ii_S1_P4E.2_K4.1_C4.2_[C-2T]_[T-1C]_H4.1_A4.1_F4.1_T4.2_[G10T]_[T11A] (ssRNA)
# RNA: UCUCUUUCUGUAUAUUAUAUCUCUU
# B10: Id_ii_S1_P4E.2_K4.1_C4.2_[C-2T]_[T-1C]_H4.1_A4.1_F4.1_T4.2_[G10T] (ssRNA)
# RNA: UCUCUUUCUGUAUAUUAUUUCUCUU
# B11: Id_ii_S1_P4E.2_K4.1_C4.2_[C-2T]_[T-1C]_H4.1_A4.1_F4.1_T4.2_[G10A]_[T11G] (ssRNA)
# RNA: UCUCUUUCUGUAUAUUAAGUCUCUU
# B12: Id_ii_S1_P4E.2_K4.1_C4.2_[C-2T]_[T-1C]_H4.1_A4.1_F4.1_T4.2_[G10A]_[T11C] (ssRNA)
# RNA: UCUCUUUCUGUAUAUUAACUCUCUU
# B13: Id_ii_S1_P4E.2_K4.1_C4.2_[C-2T]_[T-1C]_H4.1_A4.1_F4.1_T4.2_[G10A]_[T11A] (ssRNA)
# RNA: UCUCUUUCUGUAUAUUAAAUCUCUU
# B14: Id_ii_S1_P4E.2_K4.1_C4.2_[C-2T]_[T-1C]_H4.1_A4.1_F4.1_T4.2 (ssRNA)
# RNA: UCUCUUUCUGUAUAUUAGUUCUCUU
# B15: Ib_S1_P4E.1_K4.1_C4.1_H4.1_[T3C]_A4.1_[T5C]_F4.1_T4.1 (ssRNA)
# RNA: UCUCUUUGCACAUUAUCUCUU
# B16: Id_ii_S1_P4E.2_K4.1_C4.2_[C-2T]_[T-1A]_H4.1_A4.1_F4.1_T4.2_[G10C]_[T11C] (ssRNA)
# RNA: UCUCUUUAUGUAUAUUACCUCUCUU
# B17: Id_ii_S1_P4E.2_K4.1_C4.2_[C-2T]_[T-1A]_H4.1_A4.1_F4.1_T4.2_[G10C] (ssRNA)
# RNA: UCUCUUUAUGUAUAUUACUUCUCUU
# B18: Id_ii_S1_P4E.2_K4.1_C4.2_[C-2T]_[T-1A]_H4.1_A4.1_F4.1_T4.2_[G10T]_[T11G] (ssRNA)
# RNA: UCUCUUUAUGUAUAUUAUGUCUCUU
# B19: Id_ii_S1_P4E.2_K4.1_C4.2_[C-2T]_[T-1A]_H4.1_A4.1_F4.1_T4.2_[G10T]_[T11C] (ssRNA)
# RNA: UCUCUUUAUGUAUAUUAUCUCUCUU
# B20: Id_ii_S1_P4E.2_K4.1_C4.2_[C-2T]_[T-1A]_H4.1_A4.1_F4.1_T4.2_[G10T] (ssRNA)
# RNA: UCUCUUUAUGUAUAUUAUUUCUCUU
# B21: Id_ii_S1_P4E.2_K4.1_C4.2_[C-2T]_[T-1A]_H4.1_A4.1_F4.1_T4.2_[G10A]_[T11C] (ssRNA)
# RNA: UCUCUUUAUGUAUAUUAACUCUCUU
# B22: Id_ii_S1_P4E.2_K4.1_C4.2_[C-2T]_[T-1A]_H4.1_A4.1_F4.1_T4.2_[G10A]_[T11A] (ssRNA)
# RNA: UCUCUUUAUGUAUAUUAAAUCUCUU
# B23: Id_ii_S1_P4E.2_K4.1_C4.2_[C-2T]_[T-1A]_H4.1_A4.1_F4.1_T4.2_[G10A] (ssRNA)
# RNA: UCUCUUUAUGUAUAUUAAUUCUCUU
# B24: Id_ii_S1_P4E.2_K4.1_C4.2_[C-2T]_[T-1A]_H4.1_A4.1_F4.1_T4.2_[T11C] (ssRNA)
# RNA: UCUCUUUAUGUAUAUUAGCUCUCUU
# B25: Id_ii_S1_P4E.2_K4.1_C4.2_[C-2T]_[T-1A]_H4.1_A4.1_F4.1_T4.2 (ssRNA)
# RNA: UCUCUUUAUGUAUAUUAGUUCUCUU
# B26: Ic_S1_P4E.1_K4.1_C4.1_H4.1_A4.1_[T7C]_F4.1_T4.1 (ssRNA)
# RNA: UCUCUUUGUAUACUAUCUCUU
# B27: Ib_S1_P4E.1_K4.1_C4.1_H4.1_[T3C]_A4.1_[T5A]_F4.1_T4.1 (ssRNA)
# RNA: UCUCUUUGCAAAUUAUCUCUU
# B28: Id_ii_S1_P4E.2_K4.1_C4.2_[C-2T]_H4.1_A4.1_F4.1_T4.2_[G10C]_[T11C] (ssRNA)
# RNA: UCUCUUUUUGUAUAUUACCUCUCUU
# B29: Id_ii_S1_P4E.2_K4.1_C4.2_[C-2T]_H4.1_A4.1_F4.1_T4.2_[G10C] (ssRNA)
# RNA: UCUCUUUUUGUAUAUUACUUCUCUU
# B30: Id_ii_S1_P4E.2_K4.1_C4.2_[C-2T]_H4.1_A4.1_F4.1_T4.2_[G10T]_[T11G] (ssRNA)
# RNA: UCUCUUUUUGUAUAUUAUGUCUCUU
# B31: Id_ii_S1_P4E.2_K4.1_C4.2_[C-2T]_H4.1_A4.1_F4.1_T4.2_[G10T]_[T11C] (ssRNA)
# RNA: UCUCUUUUUGUAUAUUAUCUCUCUU
# B32: Id_ii_S1_P4E.2_K4.1_C4.2_[C-2T]_H4.1_A4.1_F4.1_T4.2_[G10T]_[T11A] (ssRNA)
# RNA: UCUCUUUUUGUAUAUUAUAUCUCUU
# B33: Id_ii_S1_P4E.2_K4.1_C4.2_[C-2T]_H4.1_A4.1_F4.1_T4.2_[G10T] (ssRNA)
# RNA: UCUCUUUUUGUAUAUUAUUUCUCUU
# B34: Id_ii_S1_P4E.2_K4.1_C4.2_[C-2T]_H4.1_A4.1_F4.1_T4.2_[G10A]_[T11G] (ssRNA)
# RNA: UCUCUUUUUGUAUAUUAAGUCUCUU
# B35: Id_ii_S1_P4E.2_K4.1_C4.2_[C-2T]_H4.1_A4.1_F4.1_T4.2_[G10A]_[T11C] (ssRNA)
# RNA: UCUCUUUUUGUAUAUUAACUCUCUU
# B36: Id_ii_S1_P4E.2_K4.1_C4.2_[C-2T]_H4.1_A4.1_F4.1_T4.2_[G10A]_[T11A] (ssRNA)
# RNA: UCUCUUUUUGUAUAUUAAAUCUCUU
# B37: Id_ii_S1_P4E.2_K4.1_C4.2_[C-2T]_H4.1_A4.1_F4.1_T4.2_[G10A] (ssRNA)
# RNA: UCUCUUUUUGUAUAUUAAUUCUCUU
# B38: Ib_S1_P4E.1_K4.1_C4.1_H4.1_[T3C]_A4.1_[A6G]_F4.1_T4.1 (ssRNA)
# RNA: UCUCUUUGCAUGUUAUCUCUU
# B39: Id_ii_S1_P4E.2_K4.1_C4.2_[C-2T]_H4.1_A4.1_F4.1_T4.2_[T11G] (ssRNA)
# RNA: UCUCUUUUUGUAUAUUAGGUCUCUU
# B40: Id_ii_S1_P4E.2_K4.1_C4.2_[C-2T]_H4.1_A4.1_F4.1_T4.2_[T11C] (ssRNA)
# RNA: UCUCUUUUUGUAUAUUAGCUCUCUU
# B41: Id_ii_S1_P4E.2_K4.1_C4.2_[C-2T]_H4.1_A4.1_F4.1_T4.2 (ssRNA)
# RNA: UCUCUUUUUGUAUAUUAGUUCUCUU
# B42: Id_ii_S1_P4E.2_K4.1_C4.2_[C-2A]_[T-1G]_H4.1_A4.1_F4.1_T4.2_[G10T] (ssRNA)
# RNA: UCUCUUAGUGUAUAUUAUUUCUCUU
# B43: Id_ii_S1_P4E.2_K4.1_C4.2_[C-2A]_[T-1C]_H4.1_A4.1_F4.1_T4.2_[G10C]_[T11C] (ssRNA)
# RNA: UCUCUUACUGUAUAUUACCUCUCUU
# B44: Id_ii_S1_P4E.2_K4.1_C4.2_[C-2A]_[T-1C]_H4.1_A4.1_F4.1_T4.2_[G10C] (ssRNA)
# RNA: UCUCUUACUGUAUAUUACUUCUCUU
# B45: Id_ii_S1_P4E.2_K4.1_C4.2_[C-2A]_[T-1C]_H4.1_A4.1_F4.1_T4.2_[G10T]_[T11G] (ssRNA)
# RNA: UCUCUUACUGUAUAUUAUGUCUCUU
# B46: Id_ii_S1_P4E.2_K4.1_C4.2_[C-2A]_[T-1C]_H4.1_A4.1_F4.1_T4.2_[G10T]_[T11C] (ssRNA)
# RNA: UCUCUUACUGUAUAUUAUCUCUCUU
# B47: Id_ii_S1_P4E.2_K4.1_C4.2_[C-2A]_[T-1C]_H4.1_A4.1_F4.1_T4.2_[G10T]_[T11A] (ssRNA)
# RNA: UCUCUUACUGUAUAUUAUAUCUCUU
# B48: Id_ii_S1_P4E.2_K4.1_C4.2_[C-2A]_[T-1C]_H4.1_A4.1_F4.1_T4.2_[G10T] (ssRNA)
# RNA: UCUCUUACUGUAUAUUAUUUCUCUU
# B49: Ib_S1_P4E.1_K4.1_C4.1_H4.1_[T3C]_A4.1_[A6C]_F4.1_T4.1 (ssRNA)
# RNA: UCUCUUUGCAUCUUAUCUCUU
# Target: T1, PUF4 RNA-binding domain
# Assay: Mg; RNA-MaP; 20 mM Na-HEPES pH 7.4, 30 mM KOAc, 0.75 mM MgCl2, 0.1% Tween-20, 5% glycerol, 0.1 mg/mL BSA, 2 mM DTT; 25 C; 0.0125-409.6 nM protein
# Conditions: tags: N-His6-TEV cleaved; C-SNAP kept, Cy3B-labelled; label: tethered on chip by stalled RNA polymerase
row,Binder,Kd [nM]
1,B1,1.47
2,B2,1.63
3,B3,0.304
4,B4,61.4
5,B5,0.848
6,B6,0.672
7,B7,0.963
8,B8,0.77
9,B9,0.738
10,B10,0.502
11,B11,2.74
12,B12,0.887
13,B13,1.06
14,B14,0.308
15,B15,36.2
16,B16,0.854
17,B17,1.03
18,B18,0.98
19,B19,0.896
20,B20,1.07
21,B21,1.35
22,B22,1.94
23,B23,1.17
24,B24,0.465
25,B25,0.379

row,Binder,Kd [nM]
1,B26,0.741
2,B27,926
3,B28,1.09
4,B29,0.909
5,B30,0.981
6,B31,0.856
7,B32,1.24
8,B33,0.679
9,B34,3.68
10,B35,1.09
11,B36,1.21
12,B37,1.09
13,B38,2150
14,B39,0.884
15,B40,0.413
16,B41,0.256
17,B42,2.57
18,B43,1.69
19,B44,1.6
20,B45,1.34
21,B46,1.4
22,B47,1.83
23,B48,1.39
24,B49,> 2300
